Measured values: IntAct's records for PubMed 36931259

B1: 14-3-3 protein sigma (Homo sapiens), P31947 (parent)
chain: MERASLIQKAKLAEQAERYEDMAAFMKGAVEKGEELSCEERNLLSVAYKNVVGGQRAAWRVLSSIEQKSNEEGSEEKGPEVREYREKVETELQGVCDTVLGLLDSHLIKEAGDAESRVFYLKMKGDYYRYLAEVATGDDKKRIIDSARSAYQEAMDISKKEMPPTNPIRLGLALNFSVFHYEIANSPEEAISLAKTTFDEAMADLHTLSEDSYKDSTLIMQLLRDNLTLWTADNAGEEGGEAPQEPQS
partner: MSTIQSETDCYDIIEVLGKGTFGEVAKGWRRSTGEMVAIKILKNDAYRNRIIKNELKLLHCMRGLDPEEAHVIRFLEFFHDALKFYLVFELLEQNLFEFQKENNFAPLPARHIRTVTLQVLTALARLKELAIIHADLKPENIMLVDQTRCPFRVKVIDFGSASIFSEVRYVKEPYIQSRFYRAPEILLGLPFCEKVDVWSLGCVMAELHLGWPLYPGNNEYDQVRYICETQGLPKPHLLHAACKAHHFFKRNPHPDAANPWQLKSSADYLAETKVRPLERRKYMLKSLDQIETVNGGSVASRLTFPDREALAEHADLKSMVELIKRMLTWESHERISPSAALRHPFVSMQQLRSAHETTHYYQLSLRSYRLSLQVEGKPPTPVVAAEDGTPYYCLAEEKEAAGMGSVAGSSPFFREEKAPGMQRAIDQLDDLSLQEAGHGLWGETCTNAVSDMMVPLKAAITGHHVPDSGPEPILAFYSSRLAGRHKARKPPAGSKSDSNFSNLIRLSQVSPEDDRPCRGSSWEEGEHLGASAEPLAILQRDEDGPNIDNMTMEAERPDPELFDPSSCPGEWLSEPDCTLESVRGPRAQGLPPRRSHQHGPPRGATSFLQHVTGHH
B2: 14-3-3 protein sigma (Homo sapiens), P31947 (parent)
chain: B1 chain
partner: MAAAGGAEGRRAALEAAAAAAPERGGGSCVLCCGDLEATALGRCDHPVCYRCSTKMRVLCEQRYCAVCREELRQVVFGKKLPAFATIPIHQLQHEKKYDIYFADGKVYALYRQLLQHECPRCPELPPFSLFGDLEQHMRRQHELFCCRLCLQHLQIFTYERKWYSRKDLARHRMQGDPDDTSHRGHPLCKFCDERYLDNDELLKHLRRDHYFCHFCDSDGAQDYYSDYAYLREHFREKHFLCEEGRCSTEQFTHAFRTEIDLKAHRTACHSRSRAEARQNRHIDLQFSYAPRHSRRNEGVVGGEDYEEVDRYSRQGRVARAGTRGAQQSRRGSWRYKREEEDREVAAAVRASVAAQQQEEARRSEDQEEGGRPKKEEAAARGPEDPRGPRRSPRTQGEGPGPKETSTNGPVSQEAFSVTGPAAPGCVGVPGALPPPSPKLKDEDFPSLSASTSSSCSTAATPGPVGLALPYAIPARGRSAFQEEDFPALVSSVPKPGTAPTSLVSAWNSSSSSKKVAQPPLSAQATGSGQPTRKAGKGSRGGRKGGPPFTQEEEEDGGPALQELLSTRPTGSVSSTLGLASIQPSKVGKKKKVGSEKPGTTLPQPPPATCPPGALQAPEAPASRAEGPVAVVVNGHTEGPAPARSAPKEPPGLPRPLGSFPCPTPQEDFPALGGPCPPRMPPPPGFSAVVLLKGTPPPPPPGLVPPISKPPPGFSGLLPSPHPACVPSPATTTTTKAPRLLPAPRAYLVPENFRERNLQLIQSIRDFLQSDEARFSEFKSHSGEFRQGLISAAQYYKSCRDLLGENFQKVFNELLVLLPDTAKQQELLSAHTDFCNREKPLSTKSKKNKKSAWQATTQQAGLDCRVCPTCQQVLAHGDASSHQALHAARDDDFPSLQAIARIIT
B3: 14-3-3 protein sigma (Homo sapiens), P31947 (parent)
chain: B1 chain
partner: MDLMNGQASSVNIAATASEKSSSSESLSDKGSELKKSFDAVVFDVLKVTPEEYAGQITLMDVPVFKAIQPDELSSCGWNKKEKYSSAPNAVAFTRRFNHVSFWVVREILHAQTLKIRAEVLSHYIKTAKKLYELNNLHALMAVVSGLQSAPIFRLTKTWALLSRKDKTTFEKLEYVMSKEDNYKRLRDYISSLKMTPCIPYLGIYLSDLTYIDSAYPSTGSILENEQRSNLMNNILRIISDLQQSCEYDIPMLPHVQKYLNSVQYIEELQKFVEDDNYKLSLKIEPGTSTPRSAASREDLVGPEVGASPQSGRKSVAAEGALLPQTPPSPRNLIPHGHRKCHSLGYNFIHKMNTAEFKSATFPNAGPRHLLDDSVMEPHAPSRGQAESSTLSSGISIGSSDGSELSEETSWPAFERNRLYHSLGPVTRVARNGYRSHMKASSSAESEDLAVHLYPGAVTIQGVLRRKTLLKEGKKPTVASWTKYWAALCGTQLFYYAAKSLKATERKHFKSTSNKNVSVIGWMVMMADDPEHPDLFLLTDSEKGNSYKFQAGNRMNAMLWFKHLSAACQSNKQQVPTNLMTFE
B4: 14-3-3 protein sigma (Homo sapiens), P31947 (parent)
chain: B1 chain
partner: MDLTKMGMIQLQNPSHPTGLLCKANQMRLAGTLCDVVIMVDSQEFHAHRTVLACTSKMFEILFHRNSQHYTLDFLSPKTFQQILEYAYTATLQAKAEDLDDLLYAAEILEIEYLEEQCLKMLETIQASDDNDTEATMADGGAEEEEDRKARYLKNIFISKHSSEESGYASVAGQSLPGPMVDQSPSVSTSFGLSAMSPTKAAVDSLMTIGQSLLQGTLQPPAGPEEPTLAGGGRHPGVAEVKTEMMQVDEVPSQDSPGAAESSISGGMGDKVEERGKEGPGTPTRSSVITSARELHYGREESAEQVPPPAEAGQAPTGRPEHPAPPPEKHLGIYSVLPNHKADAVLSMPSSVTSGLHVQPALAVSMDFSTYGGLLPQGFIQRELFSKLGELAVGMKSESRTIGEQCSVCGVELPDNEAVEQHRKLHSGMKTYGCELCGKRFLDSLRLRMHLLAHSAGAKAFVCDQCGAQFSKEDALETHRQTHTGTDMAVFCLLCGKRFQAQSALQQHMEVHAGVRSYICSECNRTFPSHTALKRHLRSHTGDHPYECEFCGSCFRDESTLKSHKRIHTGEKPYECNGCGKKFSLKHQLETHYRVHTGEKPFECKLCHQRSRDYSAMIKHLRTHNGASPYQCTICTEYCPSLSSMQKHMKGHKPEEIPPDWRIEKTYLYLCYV
B5: 14-3-3 protein sigma (Homo sapiens), P31947 (parent)
chain: B1 chain
partner: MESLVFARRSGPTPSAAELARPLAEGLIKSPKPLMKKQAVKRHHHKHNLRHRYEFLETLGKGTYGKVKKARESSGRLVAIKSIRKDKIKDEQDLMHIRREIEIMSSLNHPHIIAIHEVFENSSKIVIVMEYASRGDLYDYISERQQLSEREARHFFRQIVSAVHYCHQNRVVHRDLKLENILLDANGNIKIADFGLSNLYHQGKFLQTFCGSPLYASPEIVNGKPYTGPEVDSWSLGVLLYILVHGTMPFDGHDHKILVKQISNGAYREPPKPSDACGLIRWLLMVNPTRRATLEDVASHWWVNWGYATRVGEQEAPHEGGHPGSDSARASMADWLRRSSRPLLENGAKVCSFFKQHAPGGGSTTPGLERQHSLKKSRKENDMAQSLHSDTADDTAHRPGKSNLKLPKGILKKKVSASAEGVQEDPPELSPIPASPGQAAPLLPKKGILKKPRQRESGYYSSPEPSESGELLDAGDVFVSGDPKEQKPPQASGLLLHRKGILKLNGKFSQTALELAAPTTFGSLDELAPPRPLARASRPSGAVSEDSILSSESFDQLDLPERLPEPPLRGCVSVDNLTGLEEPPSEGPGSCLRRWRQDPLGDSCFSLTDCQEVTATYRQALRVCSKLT
B6: 14-3-3 protein sigma (Homo sapiens), P31947 (parent)
chain: B1 chain
partner: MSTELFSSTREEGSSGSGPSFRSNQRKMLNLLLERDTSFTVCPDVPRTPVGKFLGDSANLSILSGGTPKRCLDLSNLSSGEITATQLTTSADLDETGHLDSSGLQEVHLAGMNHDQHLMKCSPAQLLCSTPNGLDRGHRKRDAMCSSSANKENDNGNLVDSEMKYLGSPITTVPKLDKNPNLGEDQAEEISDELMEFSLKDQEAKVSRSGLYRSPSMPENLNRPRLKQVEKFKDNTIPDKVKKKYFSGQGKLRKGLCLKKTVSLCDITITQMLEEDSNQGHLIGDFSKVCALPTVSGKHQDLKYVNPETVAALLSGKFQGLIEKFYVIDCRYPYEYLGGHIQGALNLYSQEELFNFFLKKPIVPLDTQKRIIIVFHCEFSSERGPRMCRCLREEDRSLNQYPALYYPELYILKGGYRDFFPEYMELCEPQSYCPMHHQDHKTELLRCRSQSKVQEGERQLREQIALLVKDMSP

Variants of: B1
Conditions: with hipk4_human HIPK4, Q8NE63

Row | effect of a mutation on the interaction | Variant
1 | decreasing interaction strength | K49E;R56E;V178D

Variants of: B2
Conditions: with zn598_human ZNF598, Q86UK7

Row | effect of a mutation on the interaction | Variant
2 | decreasing interaction strength | K49E;R56E;V178D

Variants of: B3
Conditions: with rgps2_human RALGPS2, Q86X27

Row | effect of a mutation on the interaction | Variant
3 | decreasing interaction strength | K49E;R56E;V178D

Variants of: B4
Conditions: with zbt16_human ZBTB16, Q05516

Row | effect of a mutation on the interaction | Variant
4 | decreasing interaction strength | K49E;R56E;V178D

Variants of: B5
Conditions: with nuak2_human NUAK2, Q9H093

Row | effect of a mutation on the interaction | Variant
5 | decreasing interaction strength | K49E;R56E;V178D

Variants of: B6
Conditions: with mpip3_human CDC25C

Row | effect of a mutation on the interaction | Variant
6 | decreasing interaction strength | K49E;R56E;V178D
